From PMC6737903, “The Hox gene Abdominal-B uses Doublesex^F as a cofactor to promote neuroblast apoptosis in the Drosophila central nervous system” (Development (Cambridge, England), 2019)

Target: T1, His-Dsx^CR (Dsx common region, aa residues 1-397) (Drosophila, UniProt P23023 1-397)
T1 construct: Doublesex (Dsx), Drosophila, region common to the male and female isoforms, aa residues 1-397; source: bacterially expressed (0.5 mM IPTG, 18°C, 2 h), cell lysate for the pulldown; purified and dialyzed for EMSA; not shown: His tag, N-terminal, kept
Assay: pull-down; GST pulldown: GST-tagged AbdB proteins or GST alone as bait; bacterially expressed His-tagged Dsx proteins as input cell lysates; Western blot; three repetitions
Conditions: one partner purified

T1 sequence (P23023 1-397): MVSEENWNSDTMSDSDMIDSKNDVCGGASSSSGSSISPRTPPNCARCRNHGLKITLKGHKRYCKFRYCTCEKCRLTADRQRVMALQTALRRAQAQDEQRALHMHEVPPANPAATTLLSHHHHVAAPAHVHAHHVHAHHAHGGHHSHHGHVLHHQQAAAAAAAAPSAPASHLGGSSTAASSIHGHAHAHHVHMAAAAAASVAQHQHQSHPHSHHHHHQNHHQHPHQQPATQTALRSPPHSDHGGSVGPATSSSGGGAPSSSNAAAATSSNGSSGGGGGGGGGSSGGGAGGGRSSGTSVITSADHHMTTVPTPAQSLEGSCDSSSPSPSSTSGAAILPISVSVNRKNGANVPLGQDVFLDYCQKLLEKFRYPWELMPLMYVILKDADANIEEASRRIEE

binding result: binds
B1: GST-AbdB-N (truncated version of AbdB-r, aa residues 89-270) (domain or fragment)
chain: not shown
notes: Abdominal-B (AbdB), Drosophila, regulatory isoform AbdB-r, aa residues 89-270; printed length of AbdB-r by the limits: 270; numbers count on: the AbdB-r isoform; The results say that AbdB-N lacks the first 89 amino acids; the methods give aa residues 89-270; also called GST-tagged AbdB-N; source: bacterially expressed (0.5 mM IPTG, 18°C, 2 h); GST-tagged bait in the pulldown; used as protein (50 …)
